{"source": "patent US20230257473A1", "about": "(TENEOBIO, published 2023)", "key": {"[1]": {"molecular_target": "recombinant BCMA (R&D Systems, catalog no. 193-BC) (human) (UniProt Q02223)", "sequence (Q02223 5-51 limits assumed)": "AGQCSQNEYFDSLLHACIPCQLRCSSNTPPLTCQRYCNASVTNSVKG", "test": "competitive ELISA, plate-bound BCMA; Ab 0.002 ng/mL; competitor APRIL 500.00 ng/mL"}, "[2]": {"molecular_target": "recombinant BCMA (R&D Systems, catalog no. 193-BC) (human) (UniProt Q02223)", "test": "competitive ELISA, plate-bound BCMA; Ab 2.000 ng/mL; competitor APRIL 31.25 ng/mL"}, "[3]": {"molecular_target": "recombinant BCMA (R&D Systems, catalog no. 193-BC) (human) (UniProt Q02223)", "test": "competitive ELISA, plate-bound BCMA; Ab 0.002 ng/mL; competitor APRIL 125.00 ng/mL"}, "[4]": {"molecular_target": "recombinant BCMA (R&D Systems, catalog no. 193-BC) (human) (UniProt Q02223)", "test": "competitive ELISA, plate-bound BCMA; Ab 0.020 ng/mL; competitor APRIL 7.81 ng/mL"}, "[5]": {"molecular_target": "recombinant BCMA (R&D Systems, catalog no. 193-BC) (human) (UniProt Q02223)", "test": "competitive ELISA, plate-bound BCMA; Ab 0.020 ng/mL; competitor APRIL 15.63 ng/mL"}, "[6]": {"molecular_target": "recombinant BCMA (R&D Systems, catalog no. 193-BC) (human) (UniProt Q02223)", "test": "competitive ELISA, plate-bound BCMA; Ab 2.000 ng/mL; competitor APRIL 125.00 ng/mL"}, "[7]": {"molecular_target": "recombinant BCMA (R&D Systems, catalog no. 193-BC) (human) (UniProt Q02223)", "test": "competitive ELISA, plate-bound BCMA; Ab 0.200 ng/mL; competitor APRIL 62.50 ng/mL"}, "[8]": {"molecular_target": "recombinant BCMA (R&D Systems, catalog no. 193-BC) (human) (UniProt Q02223)", "test": "competitive ELISA, plate-bound BCMA; Ab 0.002 ng/mL; competitor APRIL 250.00 ng/mL"}, "[9]": {"molecular_target": "recombinant BCMA (R&D Systems, catalog no. 193-BC) (human) (UniProt Q02223)", "test": "competitive ELISA, plate-bound BCMA; Ab 2.000 ng/mL; competitor APRIL 250.00 ng/mL"}, "[10]": {"molecular_target": "recombinant BCMA (R&D Systems, catalog no. 193-BC) (human) (UniProt Q02223)", "test": "competitive ELISA, plate-bound BCMA; Ab 0.200 ng/mL; competitor APRIL 500.00 ng/mL"}, "[11]": {"molecular_target": "recombinant BCMA (R&D Systems, catalog no. 193-BC) (human) (UniProt Q02223)", "test": "competitive ELISA, plate-bound BCMA; Ab 200.000 ng/mL; competitor APRIL 7.81 ng/mL"}, "[12]": {"molecular_target": "recombinant BCMA (R&D Systems, catalog no. 193-BC) (human) (UniProt Q02223)", "test": "competitive ELISA, plate-bound BCMA; Ab 0.200 ng/mL; competitor APRIL 15.63 ng/mL"}, "[13]": {"molecular_target": "recombinant BCMA (R&D Systems, catalog no. 193-BC) (human) (UniProt Q02223)", "test": "competitive ELISA, plate-bound BCMA; Ab 200.000 ng/mL; competitor APRIL 62.50 ng/mL"}, "[14]": {"molecular_target": "recombinant BCMA (R&D Systems, catalog no. 193-BC) (human) (UniProt Q02223)", "test": "competitive ELISA, plate-bound BCMA; Ab 200.000 ng/mL; competitor APRIL 500.00 ng/mL"}, "[15]": {"molecular_target": "BCMA on BCMA-expressing cells (H929 / NCI-H929, MM1.S, U266, Daudi) (human) (UniProt Q02223)", "sequence (Q02223 whole entry)": "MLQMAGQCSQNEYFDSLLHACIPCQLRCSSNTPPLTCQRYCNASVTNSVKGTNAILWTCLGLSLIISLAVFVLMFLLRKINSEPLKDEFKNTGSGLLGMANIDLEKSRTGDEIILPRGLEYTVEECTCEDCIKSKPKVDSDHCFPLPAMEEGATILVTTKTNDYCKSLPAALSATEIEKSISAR", "test": "flow cytometry on MM1.S cells; antibody 0.195 ng/ml"}, "[16]": {"molecular_target": "BCMA on BCMA-expressing cells (H929 / NCI-H929, MM1.S, U266, Daudi) (human) (UniProt Q02223)", "test": "flow cytometry on MM1.S cells; antibody 0000 ng/ml (background)"}, "[17]": {"molecular_target": "BCMA on BCMA-expressing cells (H929 / NCI-H929, MM1.S, U266, Daudi) (human) (UniProt Q02223)", "test": "flow cytometry on MM1.S cells; antibody 100.000 ng/ml"}, "[18]": {"molecular_target": "recombinant BCMA (R&D Systems, catalog no. 193-BC) (human) (UniProt Q02223)", "test": "competitive ELISA, plate-bound BCMA; Ab 20.000 ng/mL; competitor APRIL 125.00 ng/mL"}, "[19]": {"molecular_target": "BCMA on BCMA-expressing cells (H929 / NCI-H929, MM1.S, U266, Daudi) (human) (UniProt Q02223)", "test": "flow cytometry on H929 cells; antibody 0.781 ng/ml"}, "[20]": {"molecular_target": "recombinant BCMA (R&D Systems, catalog no. 193-BC) (human) (UniProt Q02223)", "test": "competitive ELISA, plate-bound BCMA; Ab 0.200 ng/mL; competitor APRIL 31.25 ng/mL"}, "[21]": {"molecular_target": "recombinant BCMA (R&D Systems, catalog no. 193-BC) (human) (UniProt Q02223)", "test": "competitive ELISA, plate-bound BCMA; Ab 0.002 ng/mL; competitor APRIL 7.81 ng/mL"}, "[22]": {"molecular_target": "BCMA on BCMA-expressing cells (H929 / NCI-H929, MM1.S, U266, Daudi) (human) (UniProt Q02223)", "test": "flow cytometry on H929 cells; antibody 0.000 ng/ml (background)"}, "[23]": {"molecular_target": "recombinant BCMA (R&D Systems, catalog no. 193-BC) (human) (UniProt Q02223)", "test": "competitive ELISA, plate-bound BCMA; Ab 2.000 ng/mL; competitor APRIL 0.00 ng/mL"}, "[24]": {"molecular_target": "BCMA on BCMA-expressing cells (H929 / NCI-H929, MM1.S, U266, Daudi) (human) (UniProt Q02223)", "test": "flow cytometry on H929 cells; antibody 0.391 ng/ml"}, "[25]": {"molecular_target": "BCMA on BCMA-expressing cells (H929 / NCI-H929, MM1.S, U266, Daudi) (human) (UniProt Q02223)", "test": "flow cytometry on H929 cells; antibody 100.000 ng/ml"}, "[26]": {"molecular_target": "BCMA on BCMA-expressing cells (H929 / NCI-H929, MM1.S, U266, Daudi) (human) (UniProt Q02223)", "test": "flow cytometry on MM1.S cells; antibody 6.250 ng/ml"}}, "data": [{"binder": "anti-BCMA heavy chain-only antibody (UniAb) with the VH of SEQ ID NO: 12 (antibody, V domains shown, Heavy chain-only antibody from UniRat; also called Clone ID No: 316302) VH: QVQLVESGGGLVQPGGSLRLSCVASGFTFSSNAMSWVRQAPGKGLEWVSAISGSGDYTHYSDSVKGRFTISRDNSKNTLYLQMNSLRAEDTAVYYCAKEVPGGPLVDFDSRGQGTLVTVSS", "values": [{"measurement": "A450-A570", "setting": "[1]", "result": 0.0836}, {"measurement": "A450-A570", "setting": "[2]", "result": 0.0875}, {"measurement": "A450-A570", "setting": "[3]", "result": 0.066}, {"measurement": "A450-A570", "setting": "[4]", "result": 0.0631}, {"measurement": "A450-A570", "setting": "[5]", "result": 0.0614}, {"measurement": "A450-A570", "setting": "[6]", "result": 0.0736}, {"measurement": "A450-A570", "setting": "[7]", "result": 0.0631}, {"measurement": "A450-A570", "setting": "[8]", "result": 0.0647}, {"measurement": "A450-A570", "setting": "[9]", "result": 0.0837}, {"measurement": "A450-A570", "setting": "[10]", "result": 0.0745}, {"measurement": "A450-A570", "setting": "[11]", "result": 2.51}, {"measurement": "A450-A570", "setting": "[12]", "result": 0.0661}, {"measurement": "A450-A570", "setting": "[13]", "result": 2.07}, {"measurement": "A450-A570", "setting": "[14]", "result": 0.482}, {"measurement": "MFI", "setting": "[15]", "result": 2070}, {"measurement": "MFI", "setting": "[16]", "result": 2990}, {"measurement": "MFI", "setting": "[17]", "result": 2440}, {"measurement": "A450-A570", "setting": "[18]", "result": 0.203}, {"measurement": "MFI", "setting": "[19]", "result": 5060}, {"measurement": "A450-A570", "setting": "[20]", "result": 0.062}, {"measurement": "A450-A570", "setting": "[21]", "result": 0.0607}, {"measurement": "MFI", "setting": "[22]", "result": 5000}, {"measurement": "A450-A570", "setting": "[23]", "result": 0.0894}, {"measurement": "MFI", "setting": "[24]", "result": 5030}, {"measurement": "MFI", "setting": "[25]", "result": 7560}, {"measurement": "MFI", "setting": "[26]", "result": 2130}]}, {"binder": "AntiX**BCMA_F7E_F7E (bispecific antibody, part only; not given: other chains of three-chain format, not shown: another chain or arm of the molecule) tandem VH: QVQLVESGGGLVQPGGSLRLSCVASGFTFSSNAMSWVRQAPGKGLEWVSAISGSGDYTHYSDSVKGRFTISRDNSKNTLYLQMNSLRAEDTAVYYCAKEVPGGPLVDFDSRGQGTLVTVSSGGGGSGGGGSQVQLVESGGGLVQPGGSLRLSCVASGFTFSSNAMSWVRQAPGKGLEWVSAISGSGDYTHYSDSVKGRFTISRDNSKNTLYLQMNSLRAEDTAVYYCAKEVPGGPLVDFDSRGQGTLVTVSS", "values": [{"measurement": "A450-A570", "setting": "[1]", "result": 0.0617}, {"measurement": "A450-A570", "setting": "[2]", "result": 0.121}, {"measurement": "A450-A570", "setting": "[3]", "result": 0.0607}, {"measurement": "A450-A570", "setting": "[4]", "result": 0.0578}, {"measurement": "A450-A570", "setting": "[5]", "result": 0.0584}, {"measurement": "A450-A570", "setting": "[6]", "result": 0.108}, {"measurement": "A450-A570", "setting": "[7]", "result": 0.0595}, {"measurement": "A450-A570", "setting": "[8]", "result": 0.0607}, {"measurement": "A450-A570", "setting": "[9]", "result": 0.0921}, {"measurement": "A450-A570", "setting": "[10]", "result": 0.0603}, {"measurement": "A450-A570", "setting": "[11]", "result": 2.47}, {"measurement": "A450-A570", "setting": "[12]", "result": 0.0587}, {"measurement": "A450-A570", "setting": "[13]", "result": 2.44}, {"measurement": "A450-A570", "setting": "[14]", "result": 1.41}, {"measurement": "MFI", "setting": "[15]", "result": 2010}, {"measurement": "MFI", "setting": "[16]", "result": 2990}, {"measurement": "MFI", "setting": "[17]", "result": 4140}, {"measurement": "A450-A570", "setting": "[18]", "result": 0.637}, {"measurement": "MFI", "setting": "[19]", "result": 5020}, {"measurement": "A450-A570", "setting": "[20]", "result": 0.0601}, {"measurement": "A450-A570", "setting": "[21]", "result": 0.0602}, {"measurement": "MFI", "setting": "[22]", "result": 5000}, {"measurement": "A450-A570", "setting": "[23]", "result": 0.107}, {"measurement": "MFI", "setting": "[24]", "result": 5040}, {"measurement": "MFI", "setting": "[25]", "result": 20900}, {"measurement": "MFI", "setting": "[26]", "result": 2110}]}]}
